Measurements as given in US20240352105A1, “COMPOSITIONS AND METHODS FOR NEUTRALIZING ANTIGENS” (PACAGEN, INC, priority 2023, published 2024).
Several values for one entry are separate records, joined by “and”; a condition that tells them apart may be missing. Equal values may be shown once.

Tests used:
[1] = target: Can f2-sumo-His (dog (Canis familiaris)) (UniProt O18874); assay: serum ELISA, 1:32k, Alpaca 2 block
[2] = target: T1, recombinant His-tagged Der p2 (dust mite, UniProt P49278 18-146); assay: serum ELISA, 1:32k, Alpaca 2 block
T1 construct: also called Der p2-His; Der p2-HIS; not shown: His tag
T1 sequence (looked up): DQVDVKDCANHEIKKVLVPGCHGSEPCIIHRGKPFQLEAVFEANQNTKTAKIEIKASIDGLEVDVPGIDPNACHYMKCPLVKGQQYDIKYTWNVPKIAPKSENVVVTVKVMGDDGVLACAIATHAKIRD

[3] = target: recombinant His-tagged Can f2 (dog (Canis familiaris)) (UniProt O18874); assay: serum ELISA, 1:32k, Alpaca 2 block
[4] = target: recombinant His-tagged Can f1 (dog (Canis familiaris)) (UniProt O18873); assay: serum ELISA, 1:32k, Alpaca 2 block
[5] = target: Can f2-sumo-His (dog (Canis familiaris)) (UniProt O18874); assay: serum ELISA, 1:4k, Alpaca 1 block
[6] = target: T1, recombinant His-tagged Der p2; assay: serum ELISA, 1:4k, Alpaca 1 block
[7] = target: recombinant His-tagged Can f1 (dog (Canis familiaris)) (UniProt O18873); assay: serum ELISA, 1:4k, Alpaca 1 block
[8] = target: Can f2-sumo-His (dog (Canis familiaris)) (UniProt O18874); assay: serum ELISA, 1:4k, Alpaca 2 block
[9] = target: T1, recombinant His-tagged Der p2; assay: serum ELISA, 1:4k, Alpaca 2 block
[10] = target: recombinant His-tagged Can f2 (dog (Canis familiaris)) (UniProt O18874); assay: serum ELISA, 1:4k, Alpaca 2 block
[11] = target: recombinant His-tagged Can f1 (dog (Canis familiaris)) (UniProt O18873); assay: serum ELISA, 1:4k, Alpaca 2 block
[12] = target: Can f2-sumo-His (dog (Canis familiaris)) (UniProt O18874); assay: serum ELISA, 1:1K, Alpaca 1 block
[13] = target: T1, recombinant His-tagged Der p2; assay: serum ELISA, 1:1K, Alpaca 1 block
[14] = target: recombinant His-tagged Can f2 (dog (Canis familiaris)) (UniProt O18874); assay: serum ELISA, 1:1K, Alpaca 1 block
[15] = target: recombinant His-tagged Can f1 (dog (Canis familiaris)) (UniProt O18873); assay: serum ELISA, 1:1K, Alpaca 1 block
[16] = target: Can f2-sumo-His (dog (Canis familiaris)) (UniProt O18874); assay: serum ELISA, 1:2K, Alpaca 2 block
[17] = target: T1, recombinant His-tagged Der p2; assay: serum ELISA, 1:2K, Alpaca 2 block
[18] = target: recombinant His-tagged Can f2 (dog (Canis familiaris)) (UniProt O18874); assay: serum ELISA, 1:2K, Alpaca 2 block
[19] = target: recombinant His-tagged Can f1 (dog (Canis familiaris)) (UniProt O18873); assay: serum ELISA, 1:2K, Alpaca 2 block
[20] = target: Can f2-sumo-His (dog (Canis familiaris)) (UniProt O18874); assay: serum ELISA, 1:8K, Alpaca 2 block
[21] = target: T1, recombinant His-tagged Der p2; assay: serum ELISA, 1:8K, Alpaca 2 block
[22] = target: recombinant His-tagged Can f2 (dog (Canis familiaris)) (UniProt O18874); assay: serum ELISA, 1:8K, Alpaca 2 block
[23] = target: recombinant His-tagged Can f1 (dog (Canis familiaris)) (UniProt O18873); assay: serum ELISA, 1:8K, Alpaca 2 block
[24] = target: Can f2-sumo-His (dog (Canis familiaris)) (UniProt O18874); assay: serum ELISA, 1:64K, Alpaca 2 block
[25] = target: T1, recombinant His-tagged Der p2; assay: serum ELISA, 1:64K, Alpaca 2 block
[26] = target: recombinant His-tagged Can f2 (dog (Canis familiaris)) (UniProt O18874); assay: serum ELISA, 1:64K, Alpaca 2 block
[27] = target: recombinant His-tagged Can f1 (dog (Canis familiaris)) (UniProt O18873); assay: serum ELISA, 1:64K, Alpaca 2 block
[28] = target: Can f2-sumo-His (dog (Canis familiaris)) (UniProt O18874); assay: serum ELISA, 1:8K, Alpaca 1 block
[29] = target: T1, recombinant His-tagged Der p2; assay: serum ELISA, 1:8K, Alpaca 1 block
[30] = target: recombinant His-tagged Can f2 (dog (Canis familiaris)) (UniProt O18874); assay: serum ELISA, 1:8K, Alpaca 1 block
[31] = target: recombinant His-tagged Can f1 (dog (Canis familiaris)) (UniProt O18873); assay: serum ELISA, 1:8K, Alpaca 1 block
[32] = target: Can f2-sumo-His (dog (Canis familiaris)) (UniProt O18874); assay: serum ELISA, 1:16K, Alpaca 2 block
[33] = target: T1, recombinant His-tagged Der p2; assay: serum ELISA, 1:16K, Alpaca 2 block
[34] = target: recombinant His-tagged Can f2 (dog (Canis familiaris)) (UniProt O18874); assay: serum ELISA, 1:16K, Alpaca 2 block
[35] = target: recombinant His-tagged Can f1 (dog (Canis familiaris)) (UniProt O18873); assay: serum ELISA, 1:16K, Alpaca 2 block
[36] = target: Can f2-sumo-His (dog (Canis familiaris)) (UniProt O18874); assay: serum ELISA, 1:2K, Alpaca 1 block
[37] = target: T1, recombinant His-tagged Der p2; assay: serum ELISA, 1:2K, Alpaca 1 block
[38] = target: recombinant His-tagged Can f2 (dog (Canis familiaris)) (UniProt O18874); assay: serum ELISA, 1:2K, Alpaca 1 block

Sequence of recombinant His-tagged Can f2 (dog (Canis familiaris)) (O18874 19-180 limits assumed): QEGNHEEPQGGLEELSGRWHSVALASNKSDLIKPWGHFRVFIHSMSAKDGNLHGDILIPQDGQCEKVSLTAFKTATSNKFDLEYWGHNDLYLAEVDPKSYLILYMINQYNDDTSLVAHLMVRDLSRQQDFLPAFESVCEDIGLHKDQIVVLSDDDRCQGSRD
Sequence of Can f2-sumo-His (dog (Canis familiaris)) (O18874 19-180): as the sequence (O18874 19-180 limits assumed) above
Sequence of recombinant His-tagged Can f1 (dog (Canis familiaris)) (O18873 19-174 limits assumed): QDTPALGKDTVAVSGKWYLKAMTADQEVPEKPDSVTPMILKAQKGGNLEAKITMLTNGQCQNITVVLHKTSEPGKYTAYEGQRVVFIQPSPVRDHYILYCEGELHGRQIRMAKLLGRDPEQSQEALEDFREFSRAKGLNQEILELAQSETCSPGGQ

OD at 450 nm [1]: 0.071 OD and 0.061 OD
OD at 450 nm [2]: 0.082 OD
OD at 450 nm [3]: 0.075 OD and 0.068 OD
OD at 450 nm [4]: 0.091 OD and 0.093 OD
OD at 450 nm [5]: 0.071 OD and 0.072 OD
OD at 450 nm [6]: 0.119 OD and 0.116 OD
OD at 450 nm [7]: 0.137 OD and 0.147 OD
OD at 450 nm [8]: 0.09 OD and 0.081 OD
OD at 450 nm [9]: 0.113 OD
OD at 450 nm [10]: 0.108 OD and 0.101 OD
OD at 450 nm [11]: 0.122 OD
OD at 450 nm [12]: 0.119 OD and 0.111 OD
OD at 450 nm [13]: 0.246 OD and 0.255 OD
OD at 450 nm [14]: 0.128 OD and 0.133 OD
OD at 450 nm [15]: 0.294 OD and 0.342 OD
OD at 450 nm [16]: 0.119 OD and 0.113 OD
OD at 450 nm [17]: 0.152 OD and 0.15 OD
OD at 450 nm [18]: 0.143 OD and 0.133 OD
OD at 450 nm [19]: 0.185 OD and 0.179 OD
OD at 450 nm [20]: 0.083 OD and 0.079 OD
OD at 450 nm [21]: 0.101 OD and 0.103 OD
OD at 450 nm [22]: 0.099 OD and 0.084 OD
OD at 450 nm [23]: 0.108 OD and 0.111 OD
OD at 450 nm [24]: 0.07 OD and 0.057 OD
OD at 450 nm [25]: 0.071 OD and 0.079 OD
OD at 450 nm [26]: 0.07 OD and 0.062 OD
OD at 450 nm [27]: 0.088 OD and 0.087 OD
OD at 450 nm [28]: 0.072 OD
OD at 450 nm [29]: 0.104 OD and 0.099 OD
OD at 450 nm [30]: 0.076 OD
OD at 450 nm [31]: 0.116 OD and 0.117 OD
OD at 450 nm [32]: 0.074 OD and 0.081 OD
OD at 450 nm [33]: 0.091 OD and 0.089 OD
OD at 450 nm [34]: 0.08 OD and 0.075 OD
OD at 450 nm [35]: 0.101 OD and 0.098 OD
OD at 450 nm [36]: 0.088 OD and 0.085 OD
OD at 450 nm [37]: 0.149 OD and 0.154 OD
OD at 450 nm [38]: 0.093 OD and 0.099 OD
Substance: Negative serum taken from naïve alpacas
